Measured values as given in the supplement of paper PMC7877785.
± gives the uncertainty stated by the source.

Assay: self-splicing fitness, log relative to wild type (ln ratio); higher = more splicing; Tetrahymena group I intron in knt gene, E. coli kanamycin selection, DiMSum; sequences stand for … in CUCUCU…GGAGGGAAAAGUUAUCAGGCAUGCACCUGGUAGCUAGUCUUUAAACCAAUAGAUUGCAUCGGUUUAAAAGGCAAGACCGUCAAAUUGCGGGAAAGGGGUCAACAGCCGUUCAGUACCAAGUCUCAGGGGAAACUUUGAGAUGGCCUUGCAAAGGGUAUGGUAAUAAGCUGACGGACAUGGUCCUAACCACGCAGCCAAGUCCUAAGUCAACAGAUCUUCUGUUGAUAUGGAUGCAGUUCACAGACUAAAUGUCGGUCGGGGAAGAUGUAUUCUUCUCAUAAGAUAUAGUCGGACCUCUCCUUAAUGGGAGCUAGCGGAUGAAGUGAUGCAACACUGGAGCCGCUGGGAACUAAUUUGUAUGCGAAAGUAUAUUGAUUAGUUUUGGAGUACUCGUGGUCG
Method in brief: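 Pooled colonies went to amplicon sequencing on an Illumina HiSeq 2500 after six replicate transformations. The plates were LB agar with 100 μg/mL carbenicillin, 50 μM IPTG and 0.2% rhamnose, with or without 25 μg/mL kanamycin, incubated overnight at 37°C or 30°C. The E. coli BL21(DE3) library had all eight P1ex-region intron nucleotides randomised, the intron placed in the knt kanamycin-resistance gene on pET-22b(+). DiMSum fitness is the error-weighted combination of replicate fold changes, kanamycin against none, normalised to wild type.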

Sequence | self-splicing fitness (ln) (30 °C) | self-splicing fitness (ln) (37 °C)
GGCCAGCAAUAUUACGUGUA | -2.41 ± 0.083 | -1.51 ± 0.1
CCUUAGCAAUAUUACGCCGG | -3.82 ± 0.28 | -2.73 ± 0.26
GACAAGCAAUAUUACGAAUA | -2.03 ± 0.12 | -1.17 ± 0.099
ACCCAGCAAUAUUACGAAAA | -1.66 ± 0.097 | -1.83 ± 0.13
UUAUAGCAAUAUUACGUGGU | -3.55 ± 0.35 | -3.15 ± 0.35
CGGUAGCAAUAUUACGUCCA | 0.282 ± 0.15 | 0.197 ± 0.23
CUGGAGCAAUAUUACGUUAU | -4.35 ± 0.31 | -2.82 ± 0.26
CAGUAGCAAUAUUACGACAA | -1.98 ± 0.19 | -1.62 ± 0.15
UUCAAGCAAUAUUACGCUUA | -1.32 ± 0.096 | -1.2 ± 0.096
ACAGAGCAAUAUUACGUUAA | -3.15 ± 0.15 | -2.21 ± 0.21
UGCUAGCAAUAUUACGUCCA | -0.211 ± 0.06 | -0.404 ± 0.09
CUACAGCAAUAUUACGUCCU | -3.25 ± 0.18 | -2.38 ± 0.17
GACGAGCAAUAUUACGGAUA | -2.52 ± 0.24 | -2.55 ± 0.44
UUCGAGCAAUAUUACGGGUA | -1.16 ± 0.18 | -1.36 ± 0.15
AAGAAGCAAUAUUACGCUUU | -4.1 ± 0.42 | -2.58 ± 0.21
GUAGAGCAAUAUUACGUCGC | -0.635 ± 0.15 | -0.21 ± 0.18
UUGCAGCAAUAUUACGUAUG | -1.8 ± 0.081 | -1.11 ± 0.12
CGCGAGCAAUAUUACGAUUU | -3.35 ± 0.21 | -3.39 ± 0.24
GUAGAGCAAUAUUACGGACC | -1.22 ± 0.14 | 0.305 ± 0.2
GUUGAGCAAUAUUACGCCUG | – | -2.05 ± 0.35
AAGGAGCAAUAUUACGCCUG | -2.1 ± 0.28 | -0.484 ± 0.44
AAGUAGCAAUAUUACGCGUC | -1.96 ± 0.12 | -2 ± 0.19
GUUGAGCAAUAUUACGGAGU | -3.52 ± 0.29 | -2.7 ± 0.29
CGAUAGCAAUAUUACGCAUA | -3.25 ± 0.28 | -1.8 ± 0.24
CGGUAGCAAUAUUACGUCAU | -3.21 ± 0.14 | -2.56 ± 0.15
GUGUAGCAAUAUUACGUGGU | -3.96 ± 0.27 | -1.17 ± 0.22

Sequence | self-splicing fitness (ln) (30 °C) | self-splicing fitness (ln) (37 °C)
UCCCAGCAAUAUUACGAUUC | -4.67 ± 0.32 | -1.97 ± 0.14
GUACAGCAAUAUUACGAUUG | -5.06 ± 0.25 | -2.87 ± 0.17
CUUAAGCAAUAUUACGCUUA | -3.39 ± 0.32 | -1.58 ± 0.2
UUGAAGCAAUAUUACGUACC | -3.61 ± 0.41 | -1.07 ± 0.35
UUGCAGCAAUAUUACGAACU | -2.25 ± 0.23 | -2.11 ± 0.22
CGUCAGCAAUAUUACGGUAG | -0.184 ± 0.059 | 0.0634 ± 0.064
CGGGAGCAAUAUUACGUGUG | -2.47 ± 0.16 | -0.316 ± 0.11
GAGCAGCAAUAUUACGUGAG | -2.06 ± 0.069 | -0.264 ± 0.07
CGCCAGCAAUAUUACGUUGA | -2.84 ± 0.11 | -2.83 ± 0.13
GCACAGCAAUAUUACGAUAU | -0.993 ± 0.056 | -0.54 ± 0.071
AAUAAGCAAUAUUACGGCUC | -0.468 ± 0.13 | 0.129 ± 0.15
UGAAAGCAAUAUUACGGAGA | -3.09 ± 0.2 | -2.54 ± 0.23
UUACAGCAAUAUUACGAACG | -0.834 ± 0.1 | -0.112 ± 0.13
AAAGAGCAAUAUUACGAAAA | – | -0.77 ± 0.4
UCGGAGCAAUAUUACGGAAA | – | -2.64 ± 0.36
CUCAAGCAAUAUUACGAACA | -3.45 ± 0.44 | -0.994 ± 0.31
AUUCAGCAAUAUUACGAUGC | -1.27 ± 0.11 | 0.0653 ± 0.13
CUGCAGCAAUAUUACGAAGG | -2.05 ± 0.13 | -1.06 ± 0.16
GCAGAGCAAUAUUACGGGGC | -3.05 ± 0.36 | –
AGCAAGCAAUAUUACGGCAG | -0.65 ± 0.065 | -0.357 ± 0.082
CGAAAGCAAUAUUACGGACG | -2.73 ± 0.21 | -2.25 ± 0.22
ACCAAGCAAUAUUACGGGCG | -0.824 ± 0.048 | 0.12 ± 0.068
GAUGAGCAAUAUUACGUCUU | -1.41 ± 0.12 | -0.691 ± 0.12
GCGGAGCAAUAUUACGGGCA | – | -1.1 ± 0.47
GAGCAGCAAUAUUACGAGGA | -2.48 ± 0.17 | -2.89 ± 0.22
UCUCAGCAAUAUUACGCAUA | -2.22 ± 0.13 | -0.634 ± 0.12

Sequence | self-splicing fitness (ln) (30 °C) | self-splicing fitness (ln) (37 °C)
CGUAAGCAAUAUUACGGUCA | -2.2 ± 0.15 | -0.467 ± 0.12
UUCGAGCAAUAUUACGCGUA | -1.94 ± 0.14 | -1.51 ± 0.12
GAAUAGCAAUAUUACGGGGA | -2.99 ± 0.19 | -2.39 ± 0.19
CUACAGCAAUAUUACGAUGC | -3.88 ± 0.39 | -2.81 ± 0.2
AUAUAGCAAUAUUACGAUAC | -1.66 ± 0.35 | -0.756 ± 0.26
AUAUAGCAAUAUUACGGCCA | -1.28 ± 0.22 | -0.185 ± 0.26
CGGCAGCAAUAUUACGGUUG | -2.93 ± 0.14 | -1.11 ± 0.12
GCGAAGCAAUAUUACGCCGU | -3.41 ± 0.35 | -1.81 ± 0.29
GCAAAGCAAUAUUACGGGGC | -4.05 ± 0.34 | -3.13 ± 0.31
ACGGAGCAAUAUUACGACGC | -1.26 ± 0.15 | -1.11 ± 0.17
AUCCAGCAAUAUUACGUGUA | -1.71 ± 0.06 | -0.487 ± 0.059
AAUUAGCAAUAUUACGCGAA | -1.34 ± 0.15 | -1.89 ± 0.25
UCCAAGCAAUAUUACGACUA | -1.2 ± 0.12 | 0.12 ± 0.1
UCAAAGCAAUAUUACGAGUU | -4.25 ± 0.31 | -2.28 ± 0.19
UAGUAGCAAUAUUACGUUGU | -4.09 ± 0.25 | -2.13 ± 0.14
AUGGAGCAAUAUUACGCACA | -1.57 ± 0.16 | -0.961 ± 0.21
CCGAAGCAAUAUUACGAUUG | -1.16 ± 0.093 | -0.0885 ± 0.095
AAUAAGCAAUAUUACGGAUG | -2.21 ± 0.1 | -1.39 ± 0.1
GUCCAGCAAUAUUACGUCGC | -0.994 ± 0.096 | 0.0208 ± 0.12
ACGCAGCAAUAUUACGCGUC | -4.42 ± 0.17 | -2.18 ± 0.14
ACUCAGCAAUAUUACGGGUU | -3.64 ± 0.17 | -2.37 ± 0.19
AGCGAGCAAUAUUACGGACU | -1.24 ± 0.15 | 0.232 ± 0.16
CCCCAGCAAUAUUACGUUAG | -3.99 ± 0.15 | -2.97 ± 0.15
ACCCAGCAAUAUUACGAGUG | -1.74 ± 0.054 | -0.755 ± 0.058
